Assay results published in article PMC10183829, “Shuffled ATG8 interacting motifs form an ancestral bridge between UFMylation and autophagy” (The EMBO Journal, 2023).

Key:
GST-GABARAP = GST-GABARAP (UniProt O95166); test: microscopy-based protein-protein interaction assay (on-bead binding, confocal); conditions: 1 μM C53 protein; glutathione-sepharose beads with GST-GABARAP; parent: est. 1.0; read off a plot
[1] = biological target: GST-ATG8A (Arabidopsis thaliana) (UniProt Q8LEM4); test: microscopy-based on-bead protein-protein interaction assay
GST-ATG8A (Arabidopsis thaliana), sequence (Q8LEM4 1-117): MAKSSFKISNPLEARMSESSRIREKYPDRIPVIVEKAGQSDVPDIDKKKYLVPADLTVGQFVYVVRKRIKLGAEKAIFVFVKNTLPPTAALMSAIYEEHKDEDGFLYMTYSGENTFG

GST-GABARAP, sequence (O95166 whole entry): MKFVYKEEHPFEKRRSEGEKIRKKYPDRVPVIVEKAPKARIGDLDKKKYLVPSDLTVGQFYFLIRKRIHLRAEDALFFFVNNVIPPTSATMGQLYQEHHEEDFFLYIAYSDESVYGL

| Substance | response (normalized fluorescence) (GST-GABARAP) | percent more efficiently recruited than the wild type [1] |
| --- | --- | --- |
| mCh-AtC53, Q9FG23 IDWD274WDDI; IDWD285WDDI; IDWD333WDDI | 1.4 |  |
| mCh-AtC53^cAIM (IDWD274WDDI, IDWD285WDDI, IDWD333WDDI) (natural protein) |  | 22% |
